± gives the uncertainty stated by the source.
B1: Lysine-specific demethylase 2B, residues 656 to 722; numbered along this chain, Q8NHM5 (parent)
chain: LPHTAVCLVCGEAGKEDTVEEEEGKFNLMLMECSICNEIIHPGCLKIKESEGVVNDELPNCWECPKC

Variants of: B1
Assay: abundance fitness (aPCA) (normalised: wild type 0, dead -1); higher = more abundant; growth selection in yeast, the domain comes from the species named
Settings: Homo sapiens

Variant | abundance fitness
LPHTAVCLVCGEAGKEDTVEEEEGKFNLMLMECSICNEIGHPGCLKIKESEGVVNDELPNCWECPKC [I40G] | -0.229 ± 0.067
LPHTAVCLVCGEAGKEDTVEEEEGKFNLMLMECSICNEIRHPGCLKIKESEGVVNDELPNCWECPKC [I40R] | -0.2 ± 0.07
LPHTAVCLVCGEAGKEDTVEEEEGKFNLMLMECSICNEIQHPGCLKIKESEGVVNDELPNCWECPKC [I40Q] | -0.192 ± 0.056
LPHTAVCLVCGEAGKEDTVEEEEGKFNLMLMECSICNEILHPGCLKIKESEGVVNDELPNCWECPKC [I40L] | -0.154 ± 0.072
LPHTAVCLVCGEAGKEDTVEEEEGKFNLMLMECSICNEIVHPGCLKIKESEGVVNDELPNCWECPKC [I40V] | 0.215 ± 0.074
LPHTAVCLVCGEAGKEDTVEEEEGKFNLMLMECSICNEISHPGCLKIKESEGVVNDELPNCWECPKC [I40S] | 0.096 ± 0.074
LPHTAVCLVCGEAGKEDTVEEEEGKFNLMLMECSICNEITHPGCLKIKESEGVVNDELPNCWECPKC [I40T] | 0.126 ± 0.079
LPHTAVCLVCGEAGKEDTVEEEEGKFNLMLMECSICNEIKHPGCLKIKESEGVVNDELPNCWECPKC [I40K] | -0.368 ± 0.12
LPHTAVCLVCGEAGKEDTVEEEEGKFNLMLMECSICNEIPHPGCLKIKESEGVVNDELPNCWECPKC [I40P] | -0.72 ± 0.12
LPHTAVCLVCGEAGKEDTVEEEEGKFNLMLMECSICNEIYHPGCLKIKESEGVVNDELPNCWECPKC [I40Y] | -0.257 ± 0.25
LPHTAVCLVCGEAGKEDTVEEEEGKFNLMLMECSICNEIFHPGCLKIKESEGVVNDELPNCWECPKC [I40F] | -0.579 ± 0.31
LPHTAVCLVCGEAGKEDTVEEEEGKFNLMLMECSICNEIAHPGCLKIKESEGVVNDELPNCWECPKC [I40A] | 0.008 ± 0.064
LPHTAVCLVCGEAGKEDTVEEEEGKFNLMLMECSICNEIEHPGCLKIKESEGVVNDELPNCWECPKC [I40E] | -0.599 ± 0.086
LPHTAVCLVCGEAGKEDTVEEEEGKFNLMLMECSICNEIWHPGCLKIKESEGVVNDELPNCWECPKC [I40W] | -0.473 ± 0.11
LPHTAVCLVCGEAGKEDTVEEEEGKFNLMLMECSICNEICHPGCLKIKESEGVVNDELPNCWECPKC [I40C] | -0.06 ± 0.16
LPHTAVCLVCGEAGKEDTVEEEEGKFNLMLMECSICWEIIHPGCLKIKESEGVVNDELPNCWECPKC [N37W] | -0.267 ± 0.1
LPHTAVCLVCGEAGKEDTVEEEEGKFNLMLMECSICSEIIHPGCLKIKESEGVVNDELPNCWECPKC [N37S] | 0.057 ± 0.096
LPHTAVCLVCGEAGKEDTVEEEEGKFNLMLMECSICMEIIHPGCLKIKESEGVVNDELPNCWECPKC [N37M] | -0.062 ± 0.097
LPHTAVCLVCGEAGKEDTVEEEEGKFNLMLMECSICTEIIHPGCLKIKESEGVVNDELPNCWECPKC [N37T] | -0.369 ± 0.24
LPHTAVCLVCGEAGKEDTVEEEEGKFNLMLMECSICQEIIHPGCLKIKESEGVVNDELPNCWECPKC [N37Q] | 0.183 ± 0.1

Variant | abundance fitness
LPHTAVCLVCGEAGKEDTVEEEEGKFNLMLMECSICYEIIHPGCLKIKESEGVVNDELPNCWECPKC [N37Y] | 0.137 ± 0.12
LPHTAVCLVCGEAGKEDTVEEEEGKFNLMLMECSICVEIIHPGCLKIKESEGVVNDELPNCWECPKC [N37V] | -1.3 ± 0.25
LPHTAVCLVCGEAGKEDTVEEEEGKFNLMLMECSICREIIHPGCLKIKESEGVVNDELPNCWECPKC [N37R] | 0.111 ± 0.066
LPHTAVCLVCGEAGKEDTVEEEEGKFNLMLMECSICNTIIHPGCLKIKESEGVVNDELPNCWECPKC [E38T] | -0.57 ± 0.2
LPHTAVCLVCGEAGKEDTVEEEEGKFNLMLMECSICNCIIHPGCLKIKESEGVVNDELPNCWECPKC [E38C] | -0.291 ± 0.14
LPHTAVCLVCGEAGKEDTVEEEEGKFNLMLMECSICNRIIHPGCLKIKESEGVVNDELPNCWECPKC [E38R] | 0.104 ± 0.07
LPHTAVCLVCGEAGKEDTVEEEEGKFNLMLMECSICNPIIHPGCLKIKESEGVVNDELPNCWECPKC [E38P] | -0.723 ± 0.29
LPHTAVCLVCGEAGKEDTVEEEEGKFNLMLMECSICNGIIHPGCLKIKESEGVVNDELPNCWECPKC [E38G] | -0.286 ± 0.063
LPHTAVCLVCGEAGKEDTVEEEEGKFNLMLMECSICNMIIHPGCLKIKESEGVVNDELPNCWECPKC [E38M] | 0.066 ± 0.072
LPHTAVCLVCGEAGKEDTVEEEEGKFNLMLMECSICNDIIHPGCLKIKESEGVVNDELPNCWECPKC [E38D] | -0.294 ± 0.35
LPHTAVCLVCGEAGKEDTVEEEEGKFNLMLMECSICNFIIHPGCLKIKESEGVVNDELPNCWECPKC [E38F] | -0.69 ± 0.29
LPHTAVCLVCGEAGKEDTVEEEEGKFNLMLMECSICNVIIHPGCLKIKESEGVVNDELPNCWECPKC [E38V] | -0.13 ± 0.073
LPHTAVCLVCGEAGKEDTVEEEEGKFNLMLMECSICNNIIHPGCLKIKESEGVVNDELPNCWECPKC [E38N] | -0.402 ± 0.16
LPHTAVCLVCGEAGKEDTVEEEEGKFNLMLMECSICNHIIHPGCLKIKESEGVVNDELPNCWECPKC [E38H] | -0.566 ± 0.44
LPHTAVCLVCGEAGKEDTVEEEEGKFNLMLMECSICNAIIHPGCLKIKESEGVVNDELPNCWECPKC [E38A] | -0.356 ± 0.093
LPHTAVCLVCGEAGKEDTVEEEEGKFNLMLMECSICNQIIHPGCLKIKESEGVVNDELPNCWECPKC [E38Q] | -0.098 ± 0.12
LPHTAVCLVCGEAGKEDTVEEEEGKFNLMLMECSICNKIIHPGCLKIKESEGVVNDELPNCWECPKC [E38K] | -0.206 ± 0.33
LPHTAVCLVCGEAGKEDTVEEEEGKFNLMLMECSICNWIIHPGCLKIKESEGVVNDELPNCWECPKC [E38W] | -0.163 ± 0.11
LPHTAVCLVCGEAGKEDTVEEEEGKFNLMLMECSICNIIIHPGCLKIKESEGVVNDELPNCWECPKC [E38I] | -0.085 ± 0.13
LPHTAVCLVCGEAGKEDTVEEEEGKFNLMLMECSICNSIIHPGCLKIKESEGVVNDELPNCWECPKC [E38S] | -0.06 ± 0.093

From the Human Domainome abundance scans (Beltran et al. 2025)
